From patent publication US20100248975A1, “Fluorogenic peptide substrate arrays for highly multiplexed, real-time monitoring of kinase activities” (priority 2006, published 2010)

What was measured:
Abl kinase = Abl kinase (Homo sapiens, UniProt P00519); assay: Kinase substrate peptide array incubated with Abl kinase alone, phospho-specific fluorescent stain; type: biochemical; details: incubation with Abl alone; 200 μM ATP, 10 mM MgCl2, 1 hour at 30° C.; FIG. 4A
Source text: (§1) An array of 2520 peptides with 6 different amino acid sequences repeated 420 times was synthesized in situ. The six sequences were designed to represent wild type and two mutated versions of substrates of Abl and Src tyrosine kinases. The sequence of the peptides were: Abl (wt)—AIYAAPFK (SEQ ID NO:10); Abl (Mt 1)—ARYAAPDK (SEQ ID NO:11); Abl (Mt 2)—AIGAAPFK (SEQ ID NO:12); Src (wt)—EIYGEFKK (SEQ ID NO:13); Src (mt1)—EAYGEAKK (SEQ ID NO:14); and Src (mt2)—EIAGEFKK (SEQ ID NO:15), as shown in FIG. 3A.
(§2) The array was synthesized on amino derivatized silicon wafers coupled with dO-(N-Boc-2-aminoethyl)-O′—(N-diglycolyl-2-aminoethyl)hexaethyleneglycol molecule for spacing out the peptides from the surface. The peptides were synthesized using photodeprotection and t-Boc protected amino acids.
(§3) The kinase substrate array was then assayed for detecting Abl and Src kinase activity. The protecting groups of the side groups of amino acids were cleaved by HBr/TFA treatment for one hour in the presence of the scavengers thioanisole and pentamethylbenzene. The array was subsequently neutralized by 5% DIEA treatment for 5 minutes. The array was blocked with 2% BSA for 1 hour for eliminating non-specific sticking of the kinase to the array. […] The kinase mixture was washed off and the phosphorylated peptides were detected by incubating the array with a phospho-specific fluorescent stain.

[1] = test system: combination of Abl and Src; assay: Kinase substrate peptide array incubated with mixture of Abl and Src kinases, phospho-specific fluorescent stain; type: biochemical; details: incubation with combination of Abl and Src; 200 μM ATP, 10 mM MgCl2, 1 hour at 30° C.; FIG. 4C
Source text: as §1, §2, §3

[2] = test system: T1, Abl (Mt 1) substrate peptide ARYAAPDK
T1 sequence: ARYAAPDK

[3] = test system: T2, Abl (Mt 2) substrate peptide AIGAAPFK
T2 sequence: AIGAAPFK

[4] = test system: T3, Abl (wt) substrate peptide AIYAAPFK
T3 sequence: AIYAAPFK

[5] = test system: T4, Src (mt1) substrate peptide EAYGEAKK
T4 sequence: EAYGEAKK

[6] = test system: T5, Src (mt2) substrate peptide EIAGEFKK
T5 sequence: EIAGEFKK

[7] = test system: T6, Src (wt) substrate peptide EIYGEFKK
T6 sequence: EIYGEFKK

Src kinase = Src kinase (Homo sapiens, UniProt P12931); assay: Kinase substrate peptide array incubated with Src kinase alone, phospho-specific fluorescent stain; type: biochemical; details: incubation with Src alone; 200 μM ATP, 10 mM MgCl2, 1 hour at 30° C.; FIG. 4B
Source text: as §1, §2, §3

Abl kinase, sequence (P00519 whole entry): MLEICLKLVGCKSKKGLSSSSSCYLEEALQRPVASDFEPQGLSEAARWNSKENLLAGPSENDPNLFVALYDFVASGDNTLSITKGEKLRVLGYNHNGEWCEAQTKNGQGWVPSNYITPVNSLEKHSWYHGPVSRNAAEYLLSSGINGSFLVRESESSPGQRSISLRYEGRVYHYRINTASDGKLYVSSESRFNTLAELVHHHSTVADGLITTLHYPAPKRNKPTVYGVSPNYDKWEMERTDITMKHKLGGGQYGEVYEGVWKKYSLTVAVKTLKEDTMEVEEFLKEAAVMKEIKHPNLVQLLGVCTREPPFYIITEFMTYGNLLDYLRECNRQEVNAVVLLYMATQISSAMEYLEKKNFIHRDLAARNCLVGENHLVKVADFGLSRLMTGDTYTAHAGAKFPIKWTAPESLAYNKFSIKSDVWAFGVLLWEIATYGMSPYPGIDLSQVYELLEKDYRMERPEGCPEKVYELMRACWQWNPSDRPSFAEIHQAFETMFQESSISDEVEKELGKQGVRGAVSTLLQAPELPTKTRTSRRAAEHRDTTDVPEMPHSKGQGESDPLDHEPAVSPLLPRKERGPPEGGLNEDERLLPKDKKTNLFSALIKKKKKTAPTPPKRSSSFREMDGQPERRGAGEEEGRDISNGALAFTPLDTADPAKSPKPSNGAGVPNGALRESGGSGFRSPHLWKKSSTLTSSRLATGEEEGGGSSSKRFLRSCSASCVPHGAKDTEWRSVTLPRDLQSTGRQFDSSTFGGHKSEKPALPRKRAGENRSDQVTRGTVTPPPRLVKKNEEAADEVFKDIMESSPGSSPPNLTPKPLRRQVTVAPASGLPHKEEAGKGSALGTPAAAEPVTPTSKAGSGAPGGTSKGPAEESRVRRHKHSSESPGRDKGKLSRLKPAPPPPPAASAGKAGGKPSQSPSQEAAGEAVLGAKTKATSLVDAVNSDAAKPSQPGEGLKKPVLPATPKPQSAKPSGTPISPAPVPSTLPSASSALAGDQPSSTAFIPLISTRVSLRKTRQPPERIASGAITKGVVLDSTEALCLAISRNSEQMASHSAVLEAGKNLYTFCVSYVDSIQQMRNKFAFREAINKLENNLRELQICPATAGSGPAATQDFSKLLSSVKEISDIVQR
Abl kinase (Homo sapiens, UniProt P00519), sequence (P00519 whole entry): as above

phosphorylation of immobilized peptide (fluorescence of array spots) (Abl kinase) | phosphorylation of immobilized peptide (fluorescence of array spots) [1] | phosphorylation of immobilized peptide (fluorescence of array spots) (Src kinase) | Substance | phosphorylation of the arrayed peptide, detected with a phospho-specific fluorescent stain [2] | phosphorylation of the arrayed peptide, detected with a phospho-specific fluorescent stain [3] | phosphorylation of the arrayed peptide, detected with a phospho-specific fluorescent stain [4] | phosphorylation of the arrayed peptide, detected with a phospho-specific fluorescent stain [5] | phosphorylation of the arrayed peptide, detected with a phospho-specific fluorescent stain [6] | phosphorylation of the arrayed peptide, detected with a phospho-specific fluorescent stain [7]
phosphorylated | phosphorylated |  | AIYAAPFK [SEQ ID NO:10, wild type substrate peptide of Abl tyrosine kinase, synthesized in situ on array] |  |  |  |  |  | 
 |  |  | Abl kinase | only the corresponding wild type substrate peptide (either SEQ NO:10 or 13, respectively) was phosphorylated (this peptide not phosphorylated) | only the corresponding wild type substrate peptide (either SEQ NO:10 or 13, respectively) was phosphorylated (this peptide not phosphorylated) | in the presence of one kinase, only the corresponding wild type substrate peptide (either SEQ NO:10 or 13, respectively) was phosphorylated | only the corresponding wild type substrate peptide (either SEQ NO:10 or 13, respectively) was phosphorylated (this peptide not phosphorylated) | only the corresponding wild type substrate peptide (either SEQ NO:10 or 13, respectively) was phosphorylated (this peptide not phosphorylated) | only the corresponding wild type substrate peptide (either SEQ NO:10 or 13, respectively) was phosphorylated (this peptide not phosphorylated)
 | phosphorylated | phosphorylated | EIYGEFKK [SEQ ID NO:13, wild type substrate peptide of Src tyrosine kinase, synthesized in situ on array] |  |  |  |  |  | 
 |  |  | Src kinase | only the corresponding wild type substrate peptide (either SEQ NO:10 or 13, respectively) was phosphorylated (this peptide not phosphorylated) | only the corresponding wild type substrate peptide (either SEQ NO:10 or 13, respectively) was phosphorylated (this peptide not phosphorylated) | only the corresponding wild type substrate peptide (either SEQ NO:10 or 13, respectively) was phosphorylated (this peptide not phosphorylated) | only the corresponding wild type substrate peptide (either SEQ NO:10 or 13, respectively) was phosphorylated (this peptide not phosphorylated) | only the corresponding wild type substrate peptide (either SEQ NO:10 or 13, respectively) was phosphorylated (this peptide not phosphorylated) | in the presence of one kinase, only the corresponding wild type substrate peptide (either SEQ NO:10 or 13, respectively) was phosphorylated
